These binders were tested against acetylcholine receptor (assay: SPR, receptor immobilized, peptide 10 uM).

| Binder | Binding affinity (RU) | Binding affinity |
| --- | --- | --- |
| RWLRKR [6mer-2-166] |  | 125 RU |
| KVISKR [6mer-2-162] |  | 136 RU |
| RQYQKK [6mer-2-170] |  | 128 RU |
| RWQCKK [6mer-2-189] |  | 121 RU |
| KSQRKK [6mer-2-196] |  | 121 RU |
| KRRRRK [6mer-2-187] |  | 145 RU |
| RSVTKK [6mer-2-177] |  | 136 RU |
| RGYTKR [6mer-2-188] |  | 142 RU |
| KWVSRR [6mer-2-184] |  | 136 RU |
| KLRLRK [6mer-2-194] |  | 154 RU |
| RGQYRR [6mer-2-197] |  | 126 RU |
| RPNIRK [6mer-2-801] | 24 RU |  |
| RLRLKR [6mer-2-180] |  | 142 RU |
| RWQQKK [6mer-2-181] |  | 139 RU |
| RQLLKR [6mer-2-191] |  | 154 RU |
| KLFQKR [6mer-2-167] |  | 145 RU |
| RVFLKR [6mer-2-168] |  | 135 RU |
| KLLRKR [6mer-2-174] |  | 142 RU |
| RGVQRK [6mer-2-200] |  | 121 RU |
| KWLLRR [6mer-2-178] |  | 133 RU |
| KVYLKR [6mer-2-190] |  | 148 RU |
| KVIRKK [6mer-2-172] |  | 128 RU |
| RGYQKR [6mer-2-185] |  | 137 RU |
| RRVYRR [6mer-2-179] |  | 121 RU |

| Binder | Binding affinity (RU) | Binding affinity |
| --- | --- | --- |
| KLFLRR [6mer-2-201] |  | 148 RU |
| KWFYRR [6mer-2-163] |  | 149 RU |
| KWFTRR [6mer-2-165] |  | 139 RU |
| RNCGKR [6mer-2-804] | 21 RU |  |
| RGQYKR [6mer-2-199] |  | 137 RU |
| RQQTRR [6mer-2-171] |  | 139 RU |
| RNKERK [6mer-2-803] | 18 RU |  |
| RQQCKK [6mer-2-173] |  | 127 RU |
| KCSAKK [6mer-2-799] | 13 RU |  |
| KRQSRR [6mer-2-169] |  | 123 RU |
| KWYYRK [6mer-2-198] |  | 139 RU |
| RLQLRR [6mer-2-183] |  | 154 RU |
| RWFSKK [6mer-2-192] |  | 133 RU |
| KVYLRK [6mer-2-175] |  | 137 RU |
| KWRRKK [6mer-2-161] |  | 154 RU |
| RWIYRR [6mer-2-176] |  | 144 RU |
| RVRRKK [6mer-2-160] |  | 121 RU |
| KLFYKK [6mer-2-182] |  | 139 RU |
| RTAWKK [6mer-2-800] | 11 RU |  |
| KWISKR [6mer-2-193] |  | 127 RU |
| KQICRK [6mer-2-186] |  | 127 RU |
| KRQRRK [6mer-2-164] |  | 135 RU |
| KSRQKR [6mer-2-195] |  | 154 RU |
| KETKRR [6mer-2-802] | 24 RU |  |

More lines, now with the values ahead:

| Binding affinity (RU) | Binding affinity | Binder |
| --- | --- | --- |
| 21 RU |  | RKKFKK [6mer-2-808] |
| 11 RU |  | KIHARK [6mer-2-825] |
| 13 RU |  | KYAEKK [6mer-2-827] |
| 12 RU |  | RDTMKK [6mer-2-805] |
| 20 RU |  | RHCGKR [6mer-2-835] |
| 25 RU |  | REDWRK [6mer-2-823] |
| 30 RU |  | KICGRK [6mer-2-815] |
| 18 RU |  | REPWRR [6mer-2-809] |
| 13 RU |  | RCTAKK [6mer-2-822] |
| 32 RU |  | RMKKKR [6mer-2-828] |
| 33 RU |  | KPPEKR [6mer-2-812] |
| 13 RU |  | KTPERK [6mer-2-818] |
| 28 RU |  | RFWWKR [6mer-2-834] |
| 22 RU |  | KKKIRR [6mer-2-829] |
| 14 RU |  | RKTWRR [6mer-2-833] |
| 28 RU |  | KIWNRK [6mer-2-807] |

| Binding affinity (RU) | Binding affinity | Binder |
| --- | --- | --- |
| 29 RU |  | RMTWRK [6mer-2-831] |
| 21 RU |  | RMKFKR [6mer-2-830] |
| 11 RU |  | RNTPRK [6mer-2-826] |
| 26 RU |  | RITNKR [6mer-2-824] |
| 29 RU |  | KKMDRR [6mer-2-813] |
| 32 RU |  | KYHNRR [6mer-2-832] |
| 22 RU |  | KCNDKK [6mer-2-817] |
| 18 RU |  | KHAKKK [6mer-2-810] |
| 28 RU |  | RYMERK [6mer-2-814] |
| 24 RU |  | RPNNKK [6mer-2-820] |
| 33 RU |  | RPTMKR [6mer-2-821] |
| 30 RU |  | KHCVRK [6mer-2-806] |
| 23 RU |  | KFSVRR [6mer-2-819] |
| 15 RU |  | RKMGKR [6mer-2-816] |
| 16 RU |  | KAMKRK [6mer-2-811] |

Reference: patent publication US20250011363A1, “OPTIMIZED SHORTENED PEPTIDE THAT BINDS TO ACETYLCHOLINE RECEPTOR, AND USE THEREOF” (SKINMED CO., LTD., priority 2021, published 2025)
